# Measured values taken from US20210205413A1 (Nektar Therapeutics, priority 2018, published 2021).
# Where “and” joins values, the source holds several entries; their conditions need not be identical. Identical values can stand only once.
# Assays:
# [1] = tested on: CD56+ NK cells; assay: Phase I single ascending dose study in healthy volunteers: NK cells; format: in vivo, human
# Procedure: A double-blind, randomized, placebo-controlled study is conducted to evaluate the safety, tolerability, pharmacokinetics, and pharmacodynamics of single ascending low sub-cutaneous doses of an RUR20kD-IL-2 composition (RUR20kD-IL-2) in healthy volunteers. […] Twelve subjects are randomized to each dose cohort, nine of whom received a single subcutaneous dose of RUR20kD-IL-2 while three received placebo. […] The drug product is supplied in single-use glass vials and stored at 2-8° C. […] Placebo is a commercially available 0.9% sodium chloride solution. A starting dose of 0.3 μg/kg is chosen using the minimally anticipated biological effect level (MABEL) approach and is supported by the no observed adverse effect level (NOAEL) in the most sensitive species from nonclinical toxicology studies.
# The primary objective of the study is to evaluate the safety and tolerability of RUR20kD-IL-2 administered as a single subcutaneous dose. […] In a first phase of the study, immune markers are tested pre-dose up to 20 hours post-dose. Specifically, Tregs, CD4^+-T cells, CD8^+-T cells, natural killer (NK) cells, cytokines, soluble CD25, and RNA are tested in RUR20kD-IL-2- and placebo-receiving cohorts. In subsequent phases, the same immune markers are also tested at 4-, 5-, 6-, 7-, 8-, 10-, 12-, 15-, 18-, 20-, 25-, 30-, 40, and 50-days post-dose.
# [2] = Phase I ascending multiple-dose study in patients with SLE: pharmacokinetics; format: in vivo, human; conditions: Multi-Dose Study
# Procedure: The effects on SLE disease activity are also evaluated. Twelve SLE patients with minimal to moderate disease activity are randomized to each of four dose cohorts, nine of whom received multiple 1.0 mg/mL aqueous solution sub-cutaneous doses of RUR-IL-2-20 kD, while three received placebo. […] In Cohort 1, a starting dose of 3.0 μg/kg is administered three times at two-week intervals (Days 1, 15, and 29). This starting dose is based on the favorable safety and PD profile of single sub-cutaneous doses of RUR20kD-IL-2 previously determined in the study described above. The subsequent dose levels in Cohorts 2, 3, and 4, respectively, were up to two-fold that of the previous dose cohort. Patients in Cohorts 1-3 received three doses of study drug at two-week intervals over a total of four weeks. Doses to be evaluated over the course of the study range from 3.0 μg/kg to 24 μg/kg. […] After receiving the final dose of RUR20kD-IL-2 or placebo, patients are followed for an additional fifty days to evaluate safety, PK, PD, and preliminary efficacy. Eight of twelve subjects in each cohort are evaluated two weeks after the third dose of the final patient by the Safety Review Committee for possible safety issues. In addition, all patients in Cohort 4 are evaluated by the Safety Review Committee twice: (1) two weeks after the first eight subjects receive their third dose and (2) two weeks after all subjects receive all doses of study drug. Immunologic changes, including Tregs, CD4^+-T cells, CD8^+-T cells, and NK cell responses, cytokine levels, and available PK data, in addition to safety findings, are used to determine dose levels. The primary objective of the study is to evaluate the safety and tolerability of RUR20kD-IL-2 administered as multiple ascending subcutaneous doses to patients with SLE. […] Results depicting preliminary PK data from the ascending multi-dose study are compared with data from the single subcutaneous study in the below Table 15: […]
# [3] = Single dose pharmacokinetics in mice; format: in vivo, C57BL/6 Mice
# [4] = Single dose pharmacokinetics in rats (IV and SC, LS-2016-2033); format: in vivo, Sprague-Dawley Rats
# [5] = C57BL/6 mice, single SC 0.03 mg/kg, plasma
# [6] = C57BL/6 mice, single SC 0.1 mg/kg, plasma
# [7] = C57BL/6 mice, single SC 0.3 mg/kg, plasma
# [8] = Sprague-Dawley rats, single IV 0.01 mg/kg, plasma, mean ± SE
# [9] = Sprague-Dawley rats, single IV 0.1 mg/kg, plasma, mean ± SE
# [10] = Sprague-Dawley rats, single IV 1 mg/kg, plasma, mean ± SE
# [11] = Sprague-Dawley rats, single SC 0.01 mg/kg, plasma, mean ± SE
# [12] = Sprague-Dawley rats, single SC 0.1 mg/kg, plasma, mean ± SE
# [13] = Sprague-Dawley rats, single SC 1 mg/kg, plasma, mean ± SE
substance,measurement,setting,value
"(1,3-bis(methoxypoly(ethylene glycol)10kDcarbamoyl)-2-propanoxy)-4-butanamide)interleukin-2) [RUR20kD-IL-2]",increase in NK cells,[1]; highest dose tested (28.0 μg/kg),2 fold and 3.5 fold
same,percentage of CD56+ NK cells expressing Ki67,[1]; single SC 3.0 μg/kg,~10%
same,percentage of CD56+ NK cells expressing Ki67,[1]; single SC 6.0 μg/kg,20-30%
same,percentage of CD56+ NK cells expressing Ki67,[1]; single SC 9.0 μg/kg,30-40%
same,percentage of CD56+ NK cells expressing Ki67,[1]; single SC 13.5 μg/kg,30-40%
same,percentage and absolute numbers of NK cells,[1]; single SC 13.5 and 20.0 μg/kg,small increase in the percentage and absolute numbers of NK cells
same,AUC0-14 d,"[2]; 3.0 μg/kg, Median (n = 9)",185 ng·days/mL
same,Cmax,"[2]; 3.0 μg/kg, Median (n = 9)",18 ng/mL
same,tmax,"[2]; 3.0 μg/kg, Median (n = 9)",140 h
same,AUC0-14 d,"[2]; 3.0 μg/kg, max",291 ng·days/mL
same,Cmax,"[2]; 3.0 μg/kg, max",26 ng/mL
same,tmax,"[2]; 3.0 μg/kg, max",336 h
same,AUC0-14 d,"[2]; 3.0 μg/kg, min",113 ng·days/mL
same,Cmax,"[2]; 3.0 μg/kg, min",15 ng/mL
same,tmax,"[2]; 3.0 μg/kg, min",48 h
same,Cmax,"[2]; 6.0 μg/kg, Median (n = 7)",14 ng/mL
same,tmax,"[2]; 6.0 μg/kg, Median (n = 7)",140 h
same,AUC0-14 d,"[2]; 6.0 μg/kg, max",206 ng·days/mL
same,Cmax,"[2]; 6.0 μg/kg, max",22 ng/mL
same,tmax,"[2]; 6.0 μg/kg, max",336 h
same,AUC0-14 d,"[2]; 6.0 μg/kg, min",43 ng·days/mL
same,Cmax,"[2]; 6.0 μg/kg, min",5 ng/mL
same,tmax,"[2]; 6.0 μg/kg, min",96 h
same,AUCinf,[3]; [5],22900 ng·h/mL
same,AUClast,[3]; [5],21500 ng·h/mL
same,Cmax,[3]; [5],333 ng/mL
same,Half-life,[3]; [5],53.8 h
same,MRTinf,[3]; [5],83 h
same,tmax,[3]; [5],7.92 h
same,AUCinf,[3]; [6],102000 ng·h/mL
same,AUClast,[3]; [6],97400 ng·h/mL
same,Cmax,[3]; [6],1140 ng/mL
same,Half-life,[3]; [6],53.8 h
same,MRTinf,[3]; [6],81.4 h
same,tmax,[3]; [6],7.92 h
same,AUCinf,[3]; [7],245000 ng·h/mL
same,AUClast,[3]; [7],238000 ng·h/mL
same,Cmax,[3]; [7],3330 ng/mL
same,Half-life,[3]; [7],44.4 h
same,MRTinf,[3]; [7],71.5 h
same,tmax,[3]; [7],24 h
same,tmax,"[3]; mice, SC, range over doses",7.92 to 24 h
same,half-lives,"[3]; mice, range over doses",1.85 to 2.24 days
same,AUCinf,[4]; [8],17800 ± 1000 ng·h/mL
same,AUClast,[4]; [8],17800 ± 900 ng·h/mL
same,CL,[4]; [8],13.4 ± 0.72 mL/day/kg
same,Half-life,[4]; [8],30 ± 3.84 h
same,MRTinf,[4]; [8],44.9 ± 5.04 h
same,Vss,[4]; [8],0.0251 L/kg
same,AUCinf,[4]; [9],120000 ± 8000 ng·h/mL
same,AUClast,[4]; [9],120000 ± 8000 ng·h/mL
same,CL,[4]; [9],20.2 ± 1.4 mL/day/kg
same,Half-life,[4]; [9],40.1 ± 0.24 h
same,MRTinf,[4]; [9],52.3 ± 0.96 h
same,Vss,[4]; [9],0.0441 ± 0.0035 L/kg
same,AUCinf,[4]; [10],877000 ± 39000 ng·h/mL
same,AUClast,[4]; [10],870000 ± 35000 ng·h/mL
same,CL,[4]; [10],27.4 ± 1.2 mL/day/kg
same,Half-life,[4]; [10],37.4 ± 5.28 h
same,MRTinf,[4]; [10],45.6 ± 3.84 h
same,Vss,[4]; [10],0.0526 L/kg
same,Absolute Bioavailability,"[4]; Sprague-Dawley rats, single SC 0.01 mg/kg",40.2%
same,AUCinf,[4]; [11],7160 ± 530 ng·h/mL
same,AUClast,[4]; [11],7120 ± 510 ng·h/mL
same,Cmax,[4]; [11],95 ± 6 ng/mL
same,Half-life,[4]; [11],32.4 ± 1.4 h
same,MRTinf,[4]; [11],64.8 ± 1.4 h
same,tmax,[4]; [11],31.9 ± 7.92 h
same,Absolute Bioavailability,"[4]; Sprague-Dawley rats, single SC 0.1 mg/kg",29.8%
same,AUCinf,[4]; [12],35700 ± 5100 ng·h/mL
same,AUClast,[4]; [12],35500 ± 5100 ng·h/mL
same,Cmax,[4]; [12],380 ± 40 ng/mL
same,Half-life,[4]; [12],46.1 ± 1.9 h
same,MRTinf,[4]; [12],82.1 ± 6.72 h
same,tmax,[4]; [12],48 ± 0 h
same,Absolute Bioavailability,"[4]; Sprague-Dawley rats, single SC 1 mg/kg",46.0%
same,AUCinf,[4]; [13],404000 ± 79000 ng·h/mL
same,AUClast,[4]; [13],398000 ± 74000 ng·h/mL
same,Cmax,[4]; [13],4860 ± 930 ng/mL
same,Half-life,[4]; [13],30.5 ± 7.68 h
same,MRTinf,[4]; [13],67.7 ± 3.84 h
same,tmax,[4]; [13],55.2 ± 7.92 h
same,Vss relative to species-specific plasma volume,[4]; rats,1-2 fold
same,Bioavailability,"[4]; rats, SC, range over doses",29.8-46.0%
same,tmax,"[4]; rats, SC, range over doses",24 to 55.2 h
same,half-lives,"[4]; rats, intravenous or subcutaneous dosing, range",1.25 to 2.44 days
same,Plasma clearance (CL),"[4]; rats, range over doses",13.4 to 27.4 mL/day/kg
